KR20220059888A (dated 2022)

Experiments:
랫 Tie2 단백질 = target: T1, 랫 Tie2 단백질 (랫 (rat), UniProt A0ABK0L6J5 19-1116); assay: flow cytometry; HEK293T cells transfected with rat Tie2
T1 construct: whole, on cells; also called 다른 종 유래의 Tie2 단백질

개 Tie2 단백질 = target: T2, 개 Tie2 단백질 (개 (dog), UniProt A0A8I3S0B4 27-1128); assay: flow cytometry; HEK293T cells transfected with dog Tie2
T2 construct: whole, on cells; also called 다른 종 유래의 Tie2 단백질

마우스 Tie2 단백질 = target: T3, 마우스 Tie2 단백질 (마우스 (mouse), UniProt Q02858 23-1122); assay: flow cytometry; HEK293T cells transfected with mouse Tie2
T3 construct: whole, on cells; also called 다른 종 유래의 Tie2 단백질
T3 sequence (Q02858 23-1122): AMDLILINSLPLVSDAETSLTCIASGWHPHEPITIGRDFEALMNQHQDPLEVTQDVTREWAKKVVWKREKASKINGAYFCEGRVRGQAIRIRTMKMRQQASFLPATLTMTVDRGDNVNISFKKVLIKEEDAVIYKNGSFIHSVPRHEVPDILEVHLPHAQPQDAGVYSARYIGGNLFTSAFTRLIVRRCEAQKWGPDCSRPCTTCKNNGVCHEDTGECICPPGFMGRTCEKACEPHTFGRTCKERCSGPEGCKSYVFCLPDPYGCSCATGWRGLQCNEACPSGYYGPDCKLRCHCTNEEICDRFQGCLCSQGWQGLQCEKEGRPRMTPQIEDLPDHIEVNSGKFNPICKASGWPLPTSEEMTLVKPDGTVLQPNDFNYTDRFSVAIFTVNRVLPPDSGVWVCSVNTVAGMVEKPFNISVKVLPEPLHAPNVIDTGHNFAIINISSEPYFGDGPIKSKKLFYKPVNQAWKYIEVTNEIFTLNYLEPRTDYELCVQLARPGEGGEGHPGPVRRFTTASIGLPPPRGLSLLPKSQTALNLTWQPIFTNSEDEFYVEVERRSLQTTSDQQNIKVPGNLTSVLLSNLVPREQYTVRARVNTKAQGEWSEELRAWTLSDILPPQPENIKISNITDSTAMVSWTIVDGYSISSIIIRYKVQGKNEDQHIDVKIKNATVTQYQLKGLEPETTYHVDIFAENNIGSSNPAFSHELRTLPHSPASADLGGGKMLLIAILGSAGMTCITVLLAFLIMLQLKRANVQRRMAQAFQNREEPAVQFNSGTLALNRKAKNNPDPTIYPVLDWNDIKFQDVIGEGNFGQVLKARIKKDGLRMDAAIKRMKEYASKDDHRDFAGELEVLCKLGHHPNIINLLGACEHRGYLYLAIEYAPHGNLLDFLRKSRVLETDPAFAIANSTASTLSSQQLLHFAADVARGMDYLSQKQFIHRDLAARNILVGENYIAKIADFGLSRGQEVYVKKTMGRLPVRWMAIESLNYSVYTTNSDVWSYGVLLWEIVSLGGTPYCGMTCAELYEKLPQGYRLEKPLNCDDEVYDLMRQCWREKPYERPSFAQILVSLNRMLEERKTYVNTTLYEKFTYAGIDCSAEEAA

B1: Ang1mab2-1 (antibody, human IgG1, kappa, V domains shown)
VH: QVQLVESGGGVVQPGRSLRLSCAASGFTFSSYAMHWVRQAPGKGLEWVAVISYDGSNKYYADSVKGRFTISRDNSKNTLYLQMNSLRAEDTAVYYCARQYSGVFEYWGQGTLITVSS
VL: DIQMTQSPDSLAVSLGERATINCKSSQSVLYRSNNRNYLAWYQQKLGQPPQLLIYWASTRESGVPDRFSGSGSGADFTLTISSLQAEDVAVYYCQQYFSIPYTFGQGTKLEIKR
notes: also called 제2 기본 항체
B1: no binding (tested: 5-g/ml (so in the source)) (랫 Tie2 단백질); no binding (tested: 5-g/ml (so in the source)) (개 Tie2 단백질); no binding (tested: 5-g/ml (so in the source)) (마우스 Tie2 단백질).
